Patent US20200325231A1 (CURATORS OF THE UNIVERSITY OF MISSOURI, published 2020)
Ends that are not written are not given here. * marks the point of attachment. Biotin = O=C1N[C@H]2[C@H](CS[C@H]2CCCCC(=O)*)N1

Target: T1, Programmed Cell Death Ligand 1 (PD-L1) (human, UniProt Q9NZQ7 19-290)
T1 construct: whole, on cells; Endogenous PD-L1 on cells or in fixed tissue sections; No recombinant PD-L1 was used; also called CD274
Assay: IHC on FFPE placenta, biotinylated peptide, streptavidin-HRP/DAB
Source text: To detect PD-L1 in FFPE tissues, manual IHC techniques were employed with a biotin-conjugated version of peptide RK-10-Cy5 and compared with Ventana PD-L1 (SP263) Rabbit monoclonal Primary Antibody stained on a Roche Benchmark Ultra autostainer. Seven PD-L1 expressing NSCLC patient tissues were obtained from the MU OneHealth tissue bank and de-identified according to IRB protocols. Paraffin-embedded patient tissue slides were baked overnight, then de-waxed and rehydrated according to standard protocols. Tissue sections were then subjected to antigen retrieval in EDTA at 95° C. for 20 minutes in EDTA […]. The solution is then cooled for an additional 20 minutes on the bench top prior to buffer rinse. Tissues were then incubated with 15 biotinylated peptide for 2 hours in a humid chamber at RT. After 2 hours, slides were washed with buffer and treated with PIERCE™ High Sensitivity Streptavidin-HRP (1:200 dilution) (Sigma) for 30 minutes at RT in a humid chamber. Once this was complete, slides were again washed in buffer then treated with DAB (3,3′-Diaminobenzidine; Sigma) for 10 minutes. Slides were again washed in buffer, then dehydrated using graded alcohol and xylene and counterstained with hematoxylin. Slides were then imaged using bright-field microscopy on a Leica DM5500. […]

T1 sequence (Q9NZQ7 19-290): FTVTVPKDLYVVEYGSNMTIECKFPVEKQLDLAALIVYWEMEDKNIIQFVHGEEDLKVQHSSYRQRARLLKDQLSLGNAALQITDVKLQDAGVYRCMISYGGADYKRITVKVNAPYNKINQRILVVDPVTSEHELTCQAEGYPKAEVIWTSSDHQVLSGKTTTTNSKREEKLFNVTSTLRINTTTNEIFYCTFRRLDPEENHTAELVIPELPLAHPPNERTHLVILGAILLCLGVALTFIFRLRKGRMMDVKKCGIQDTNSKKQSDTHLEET

Biotin-GSGSGSFVLNWYRMSPSNQTDKLAA (also called Mock peptide RK-11-Biotin) [RK-11-Biotin (biotinylated mock peptide)]: binds.
